We go through ten sequences from the supplement of paper PMC12458215.

The series relates to HEK293T. The series is described as follows: plasma membrane surface immunostaining intensity (anti-HA, deep receptor scanning) (arbitrary fluorescence units); higher = higher plasma membrane expression.

± gives the uncertainty stated by the source.

As for “MLMKKNASFEDFFLLLGFSNWPHLEVVLFVVILIFYLITLIGNLFIIILSYLDSHLHTPMYFFLSNLSFLDLCYTTSSIPQLLVNLWGPEKTISYAGCTVQLYFVLALGTAECVLLVVMSYDRYAAVCRPLHYTVLMHPRFCRLLAAASWVSGFTTSALHSSFTFWIPLCRHRLVDHFFCEVPALLRLSCVDTQANELTLMVMSSIFVLIPLILILTSYGAIARAVLSMQSTTGLQKVLRTCGAHLMVVSLFFIPVMCMYLQPPSENSQDQGKFIALFYTVVTPSLNPLIYTFRNKDVRGAVKRLMGWEWGM [OR2J1]”, where the note is “GPCR class: A (Olfactory)”, the “plasma membrane surface immunostaining intensity” value was 133 ± 36.
Turning to “MGDNITSITEFLLLGFPVGPRIQMLLFGLFSLFYVFTLLGNGTILGLISLDSRLHAPMYFFLSHLAVVDIAYACNTVPRMLVNLLHPAKPISFAGRMMQTFLFSTFAVTECLLLVVMSYDLYVAICHPLRYLAIMTWRVCITLAVTSWTTGVLLSLIHLVLLLPLPFCRPQKIYHFFCEILAVLKLACADTHINENMVLAGAISGLVGPLSTIVVSYMCILCAILQIQSREVQRKAFCTCFSHLCVIGLFYGTAIIMYVGPRYGNPKEQKKYLLLFHSLFNPMLNPLICSLRNSEVKNTLKRVLGVERAL [OR2A7]”, where the note is “GPCR class: A (Olfactory)”, the “plasma membrane surface immunostaining intensity” value was found to be 117 ± 27.
“MDKINQTFVREFILLGLSGYPKLEIIFFALILVMYVVILIGNGVLIIASILDSRLHMPMYFFLGNLSFLDICYTTSSIPSTLVSLISKKRNISFSGCAVQMFFGFAMGSTECFLLGMMAFDRYVAICNPLRYPIIMNKVVYVLLTSVSWLSGGINSTVQTSLAMRWPFCGNNIINHFLCEILAVLKLACSDISVNIVTLAVSNIAFLVLPLLVIFFSYMFILYTILRTNSATGRHKAFSTCSAHLTVVIIFYGTIFFMYAKPKSQDLLGKDNLQATEGLVSMFYGVVTPMLNPIIYSLRNKDVKAAIKYLLSRKAINQ [OR13C4]”: the “plasma membrane surface immunostaining intensity” value (GPCR class: A (Olfactory)) is 311 ± 110.
On the same count and under the same terms, the value for “MMIKKNASSEDFFILLGFSNWPQLEVVLFVVILIFYLMTLTGNLFIIILSYVDSHLHTPMYFFLSNLSFLDLCHTTSSIPQLLVNLRGPEKTISYAGCMVQLYFVLALGIAECVLLVVMSYDRYVAVCRPLHYTVLMHPRFCHLLAAASWVIGFTISALHSSFTFWVPLCGHRLVDHFFCEVPALLRLSCVDTHANELTLMVMSSIFVLIPLILILTAYGAIARAVLSMQSTTGLQKVFRTCGAHLMVVSLFFIPVMCMYLQPPSENSPDQGKFIALFYTVVTPSLNPLIYTLRNKHVKGAAKRLLGWEWGK [OR2J2]” was 82.9 ± 16.
As for “MLLCTARLVGLQLLISCCWAFACHSTESSPDFTLPGDYLLAGLFPLHSGCLQVRHRPEVTLCDRSCSFNEHGYHLFQAMRLGVEEINNSTALLPNITLGYQLYDVCSDSANVYATLRVLSLPGQHHIELQGDLLHYSPTVLAVIGPDSTNRAATTAALLSPFLVPMISYAASSETLSVKRQYPSFLRTIPNDKYQVETMVLLLQKFGWTWISLVGSSDDYGQLGVQALENQATGQGICIAFKDIMPFSAQVGDERMQCLMRHLAQAGATVVVVFSSRQLARVFFESVVLTNLTGKVWVASEAWALSRHITGVPGIQRIGMVLGVAIQKRAVPGLKAFEEAYARADKKAPRPCHKGSWCSSNQLCRECQAFMAHTMPKLKAFSMSSAYNAYRAVYAVAHGLHQLLGCASGACSRGRVYPWQLLEQIHKVHFLLHKDTVAFNDNRDPLSSYNIIAWDWNGPKWTFTVLGSSTWSPVQLNINETKIQWHGKDNQVPKSVCSSDCLEGHQRVVTGFHHCCFECVPCGAGTFLNKSDLYRCQPCGKEEWAPEGSQTCFPRTVVFLALREHTSWVLLAANTLLLLLLLGTAGLFAWHLDTPVVRSAGGRLCFLMLGSLAAGSGSLYGFFGEPTRPACLLRQALFALGFTIFLSCLTVRSFQLIIIFKFSTKVPTFYHAWVQNHGAGLFVMISSAAQLLICLTWLVVWTPLPAREYQRFPHLVMLECTETNSLGFILAFLYNGLLSISAFACSYLGKDLPENYNEAKCVTFSLLFNFVSWIAFFTTASVYDGKYLPAANMMAGLSSLSSGFGGYFLPKCYVILCRPDLNSTEHFQASIQDYTRRCGST [TAS1R1]”, where the note is “GPCR class: Taste”, the “plasma membrane surface immunostaining intensity” value was found to be 124 ± 5.5.
“MGPRAKTISSLFFLLWVLAEPAENSDFYLPGDYLLGGLFSLHANMKGIVHLNFLQVPMCKEYEVKVIGYNLMQAMRFAVEEINNDSSLLPGVLLGYEIVDVCYISNNVQPVLYFLAHEDNLLPIQEDYSNYISRVVAVIGPDNSESVMTVANFLSLFLLPQITYSAISDELRDKVRFPALLRTTPSADHHIEAMVQLMLHFRWNWIIVLVSSDTYGRDNGQLLGERVARRDICIAFQETLPTLQPNQNMTSEERQRLVTIVDKLQQSTARVVVVFSPDLTLYHFFNEVLRQNFTGAVWIASESWAIDPVLHNLTELRHLGTFLGITIQSVPIPGFSEFREWGPQAGPPPLSRTSQSYTCNQECDNCLNATLSFNTILRLSGERVVYSVYSAVYAVAHALHSLLGCDKSTCTKRVVYPWQLLEEIWKVNFTLLDHQIFFDPQGDVALHLEIVQWQWDRSQNPFQSVASYYPLQRQLKNIQDISWHTINNTIPMSMCSKRCQSGQKKKPVGIHVCCFECIDCLPGTFLNHTEDEYECQACPNNEWSYQSETSCFKRQLVFLEWHEAPTIAVALLAALGFLSTLAILVIFWRHFQTPIVRSAGGPMCFLMLTLLLVAYMVVPVYVGPPKVSTCLCRQALFPLCFTICISCIAVRSFQIVCAFKMASRFPRAYSYWVRYQGPYVSMAFITVLKMVIVVIGMLATGLSPTTRTDPDDPKITIVSCNPNYRNSLLFNTSLDLLLSVVGFSFAYMGKELPTNYNEAKFITLSMTFYFTSSVSLCTFMSAYSGVLVTIVDLLVTVLNLLAISLGYFGPKCYMILFYPERNTPAYFNSMIQGYTMRRD [TAS1R2]”: the “plasma membrane surface immunostaining intensity” value (GPCR class: Taste) is 229 ± 23.
With “MGENQTMVTEFLLLGFLLGPRIQMLLFGLFSLFYIFTLLGNGAILGLISLDSRLHTPMYFFLSHLAVVDIAYTRNTVPQMLANLLHPAKPISFAGCMTQTFLCLSFGHSECLLLVLMSYDRYVAICHPLRYSVIMTWRVCITLAVTSWTCGSLLALAHVVLILRLPFSGPHEINHFFCEILSVLRLACADTWLNQVVIFAACVFFLVGPPSLVLVSYSHILAAILRIQSGEGRRKAFSTCSSHLCVVGLFFGSAIIMYMAPKSRHPEEQQKVFFLFYSFFNPTLNPLIYSLRNGEVKGALRRALGKESHS [OR2A1]”, the “plasma membrane surface immunostaining intensity” value (GPCR class: A (Olfactory)) was 106 ± 11.
Turning to “MQPYTKNWTQVTEFVMMGFAGIHEAHLLFFILFLTMYLFTLVENLAIILVVGLDHRLRRPMYFFLTHLSCLEIWYTSVTVPKMLAGFIGVDGGKNISYADCLSQLFIFTFLGATECFLLAAMAYDRYVAICMPLHYGAFVSWGTCIRLAAACWLVGFLTPILPIYLLSQLTFYGPNVIDHFSCDASPLLALSCSDVTWKETVDFLVSLAVLLASSMVIAVSYGNIVWTLLHIRSAAERWKAFSTCAAHLTVVSLFYGTLFFMYVQTKVTSSINFNKVVSVFYSVVTPMLNPLIYSLRNKEVKGALGRVFSLNFWKGQ [OR6Q1]”, for the setting “GPCR class: A (Olfactory)”, the “plasma membrane surface immunostaining intensity” value was found to be 392 ± 120.
On to “MAWENQTFNSDFILLGIFNHSPPHTFLFFLVLGIFLVAFMGNSVMVLLIYLDTQLHTPMYFLLSQLSLMDLMLICTTVPKMAFNYLSGSKSISMAGCVTQIFFYISLSGSECFLLAVMAYDRYIAICHPLRYTNLMNPKICGLMATFSWILGSTDGIIDAVATFSFSFCGSREIAHFFCEFPSLLILSCNDTSIFEEVIFICCIVMLVFPVAIIIASYARVILAVIHMGSGEGRCKAFTTCSSHLMVVGMYYGAALFMYIRPTSDHSPTQDKMVSVFYTILTPMLNPLIYSLRNKEVTRAFMKILGKGKSESELPHKLYVLLFAKFFFLISIFFYDVKILALIMYIA [OR2M2]”, for which the “plasma membrane surface immunostaining intensity” value (GPCR class: A (Olfactory)) turned out to be 134 ± 22.
For “MSEEEFYLFKNISSVGPWDGPQYHIAPVWAFYLQAAFMGTVFLIGFPLNAMVLVATLRYKKLRQPLNYILVNVSFGGFLLCIFSVFPVFVASCNGYFVFGRHVCALEGFLGTVAGLVTGWSLAFLAFERYIVICKPFGNFRFSSKHALTVVLATWTIGIGVSIPPFFGWSRFIPEGLQCSCGPDWYTVGTKYRSESYTWFLFIFCFIVPLSLICFSYTQLLRALKAVAAQQQESATTQKAEREVSRMVVVMVGSFCVCYVPYAAFAMYMVNNRNHGLDLRLVTIPSFFSKSACIYNPIIYCFMNKQFQACIMKMVCGKAMTDESDTCSSQKTEVSTVSSTQVGPN [OPN1SW]”, the “plasma membrane surface immunostaining intensity” value (GPCR class: A) was 2770 ± 310.
